Source: patent publication US20240092935A1

Biological target: Asialo-BSM (desialylated bovine submaxillary mucin) (bovine)
Assay: fluorescence binding assay on an Asialo-BSM-coated 96-well plate (0.5 µg/well), biotinylated VVA detected with Alexa Fluor 488 streptavidin, fit with GraphPad Prism

Vicia villosa agglutinin (VVA), biotinylated (from UniProt P56625 1-185)
Kd: 0.0533 µM
